{
  "source": "paper PMC2908215",
  "about": "(Human mutation, 2010)",
  "binders": {"B1": {"name": "PMS2 (natural protein, UniProt P54278 1-862, looked up)", "chain": "MERAESSSTEPAKAIKPIDRKSVHQICSGQVVLSLSTAVKELVENSLDAGATNIDLKLKDYGVDLIEVSDNGCGVEEENFEGLTLKHHTSKIQEFADLTQVETFGFRGEALSSLCALSDVTISTCHASAKVGTRLMFDHNGKIIQKTPYPRPRGTTVSVQQLFSTLPVRHKEFQRNIKKEYAKMVQVLHAYCIISAGIRVSCTNQLGQGKRQPVVCTGGSPSIKENIGSVFGQKQLQSLIPFVQLPPSDSVCEEYGLSCSDALHNLFYISGFISQCTHGVGRSSTDRQFFFINRRPCDPAKVCRLVNEVYHMYNRHQYPFVVLNISVDSECVDINVTPDKRQILLQEEKLLLAVLKTSLIGMFDSDVNKLNVSQQPLLDVEGNLIKMHAADLEKPMVEKQDQSPSLRTGEEKKDVSISRLREAFSLRHTTENKPHSPKTPEPRRSPLGQKRGMLSSSTSGAISDKGVLRPQKEAVSSSHGPSDPTDRAEVEKDSGHGSTSVDSEGFSIPDTGSHCSSEYAASSPGDRGSQEHVDSQEKAPKTDDSFSDVDCHSNQEDTGCKFRVLPQPTNLATPNTKRFKKEEILSSSDICQKLVNTQDMSASQVDVAVKINKKVVPLDFSMSSLAKRIKQLHHEAQQSEGEQNYRKFRAKICPGENQAAEDELRKEISKTMFAEMEIIGQFNLGFIITKLNEDIFIVDQHATDEKYNFEMLQQHTVLQGQRLIAPQTLNLTAVNEAVLIENLEIFRKNGFDFVIDENAPVTERAKLISLPTSKNWTFGPQDVDELIFMLSDSPGVMCRPSRVKQMFASRACRKSVMIGTALNTSEMKKLITHMGEMDHPWNCPHGRPTMRHIANLGVISQN"}},
  "target": "T1, MLH1 p.Tyr750X (human, UniProt P40692 1-749)",
  "T1 sequence (looked up)": "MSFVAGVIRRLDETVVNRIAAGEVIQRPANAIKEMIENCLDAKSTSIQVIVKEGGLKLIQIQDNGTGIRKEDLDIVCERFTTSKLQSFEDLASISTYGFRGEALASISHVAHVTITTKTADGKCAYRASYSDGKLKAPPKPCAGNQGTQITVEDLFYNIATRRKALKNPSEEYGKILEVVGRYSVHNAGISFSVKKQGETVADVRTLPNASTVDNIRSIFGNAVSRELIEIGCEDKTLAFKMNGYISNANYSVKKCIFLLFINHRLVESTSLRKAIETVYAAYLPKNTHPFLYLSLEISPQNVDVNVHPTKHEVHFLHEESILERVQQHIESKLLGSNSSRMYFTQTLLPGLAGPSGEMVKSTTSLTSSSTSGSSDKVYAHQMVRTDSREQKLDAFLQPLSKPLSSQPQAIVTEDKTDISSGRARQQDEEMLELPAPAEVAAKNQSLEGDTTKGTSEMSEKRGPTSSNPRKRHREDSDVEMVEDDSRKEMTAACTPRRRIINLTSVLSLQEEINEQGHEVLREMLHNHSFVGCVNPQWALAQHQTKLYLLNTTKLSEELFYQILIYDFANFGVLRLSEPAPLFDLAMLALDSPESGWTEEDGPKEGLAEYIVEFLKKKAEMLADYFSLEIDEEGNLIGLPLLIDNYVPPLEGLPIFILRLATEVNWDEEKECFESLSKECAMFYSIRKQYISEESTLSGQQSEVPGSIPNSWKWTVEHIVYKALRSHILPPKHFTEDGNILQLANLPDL",
  "assay": "co-IP",
  "data": [
    {"binder": "B1", "values": [
      {"measurement": "co-precipitated PMS2 in relation to wild-type", "result": "23 % of wild-type"}
    ]}
  ]
}
